Patent publication EP4635980A1 (Medigene Immunotherapies GmbH, dated 2025)

T1: ALA-5 mutagenic UNI-tag peptide (DKGEAPKDRFSA)
T1 construct: UNI-tag with alanine at position 5 (V5A); also called Uni-TAG-ALA 5; negative control
T1 peptide: DKGEAPKDRFSA

T2: ALA-10 mutagenic UNI-tag peptide (DKGEVPKDRASA)
T2 construct: UNI-tag with alanine at position 10 (F10A); also called Uni-Tag-ALA 10; positive control
T2 peptide: DKGEVPKDRASA

B1: MDG827 monoclonal antibody (MDG827 hybridoma supernatant) (antibody, V domains shown)
VH: EVQLEESGGGLVQPGRSMKLSCAASGFTFSDYGMAWVLQGPTKGLEWVASISYDGNRPYYRDSVKGRFTISRDNAKSTLYLQMESLRSEDTATYYCVKDLFEIGDFDYWGQGVMVTVSS
VL: DVLMTQTPVSLPVSLGGQVSISCRSSQSLVHSDGNTYLHWYLQKPGQSPQLLIYRVSNRFSGVPDRFTGSGSGTDFTLKISRVEPEDLGVYYCLQSTHFPLTFGSGTKLEIKR
notes: detected with anti-IgG2a secondary antibody; Used as hybridoma supernatant; also called MDG827 antibody; MDG827 Ab
B2: recombinant monoclonal MDG827 antibody (produced in HEK293 cells) (antibody, V domains shown)
VH: B1 VH
VL: B1 VL
notes: used as culture supernatant; Detected with anti-rat IgG2a; also called recombinantly produced MDG827; anti-TRBC MDG827 antibody

Key:
[1] = biological target: T1, ALA-5 mutagenic UNI-tag peptide …; test: dot blot, peptide on PVDF membrane
[2] = biological target: T2, ALA-10 mutagenic UNI-tag peptide …; test: dot blot, peptide on PVDF membrane

| Binder | binding result [1] | binding result [2] |
| --- | --- | --- |
| B1 | no binding | binds |
| B2 | no binding |  |
